These results are taken from PMC5667506, “Potent and selective inhibition of SH3 domains with dirhodium metalloinhibitors” (Chemical Science, 2015).

pKd: −log10 of the molar value. “Also recorded” adds a separate entry of the source. Like-named read-outs stand apart in the source and are kept apart here. Rh2(OAc)3 = dirhodium(II) triacetate, bound to the side-chain carboxylate

In experiment [1] the target is T1, Full-length Lyn kinase (GST-tagged Lyn B) (Homo sapiens, UniProt P07948).
T1 construct: Full-length Lyn kinase (74 nM) was treated with substrate peptide and ATP; purchased Promega
T1 sequence (P07948 1-491 isoform P07948-2): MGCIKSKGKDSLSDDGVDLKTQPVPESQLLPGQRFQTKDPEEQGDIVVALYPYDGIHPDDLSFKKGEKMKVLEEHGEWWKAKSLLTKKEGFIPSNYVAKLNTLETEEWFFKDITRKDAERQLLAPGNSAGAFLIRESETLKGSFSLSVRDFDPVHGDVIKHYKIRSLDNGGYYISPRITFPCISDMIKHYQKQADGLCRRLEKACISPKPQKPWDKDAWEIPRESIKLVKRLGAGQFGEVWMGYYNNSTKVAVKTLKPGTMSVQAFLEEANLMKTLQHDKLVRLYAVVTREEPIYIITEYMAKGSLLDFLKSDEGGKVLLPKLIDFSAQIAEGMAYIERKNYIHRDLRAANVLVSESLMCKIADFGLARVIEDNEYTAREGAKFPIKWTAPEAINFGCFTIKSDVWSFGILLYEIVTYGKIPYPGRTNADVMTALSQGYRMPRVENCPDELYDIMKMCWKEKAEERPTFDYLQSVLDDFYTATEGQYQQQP
Put plainly: Lyn kinase activation assay (ADP-Glo Kinase Assay). The settings on record: 74 nM Lyn, 5 min. The format is biochemical. How it is done:
We examined phosphorylation of a peptide substrate at low enzyme concentration (0.074 μM) and short reaction time (t = 5 min) to minimize the alternative autophosphorylation activation pathway (Fig. 6). Kinase activation with traditional ligands has typically required high ligand concentrations (∼1 mM) to overcome the intramolecular nature of the SH3–kinase domain interaction.
Fig. 6 Activation of Lyn kinase activity by a metallopeptide, S2E^Rh, and the parent peptide, S2E. […] Full-length Lyn kinase (74 nM) was treated with substrate peptide and ATP. Kinase activity was measured after 5 min in an adaptation of reported methods.[5] See ESI ^† for details.
(§1) All chemical reagents were purchased from Sigma-Aldrich and were used without further purification. […]
Kinase assay. ATP turnover by Lyn was measured using the ADP-GloTM Kinase Assay (Promega) according to the manufacturer’s protocol. Briefly, final concentrations of 72 μM ATP, 74 nM Lyn (GST-tagged Lyn B), and 240 μM substrate peptide (all from Promega) were combined in buffer (40 mM Tris, 50 μM dithiothreitol, 2 mM MnCl2 and 0.1 mg/mL BSA at pH 7.5) with a solution of the desired treatment (or control) in the same buffer for a final reaction volume of 5 µL. The kinase reaction was allowed to proceed at room temp. for 5 min from addition of ATP before the start of the ADP-Glo protocol halted the reaction. Chemiluminescence data were acquired on a Tecan Infinite M1000 microplate reader in white 384 well low volume plates (Corning Costar 3674) with an integration time of 250 ms per well. […]
For orientation: ADP-Glo first removes unused ATP, then detects ADP through luciferase.

The target in a further experiment is T2, Hck SH3 domain (Homo sapiens, UniProt P08631).
T2 construct: The hck SH3 domain was amplified by PCR using Phusion DNA polymerase; GST (N, cleaved yes); made in house; host or cells: E. coli BL21 (DE3)
T2 sequence (P08631 77-139): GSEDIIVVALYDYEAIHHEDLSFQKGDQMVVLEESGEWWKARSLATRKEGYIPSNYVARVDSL
Kind of experiment: ITC binding to Hck SH3 domain (two-sets-of-sites fit). The settings on record: 25 °C, high affinity specific site. How it is done: (§2) All chemical reagents were purchased from Sigma-Aldrich and were used without further purification.
(§3) Peptide synthesis. All peptides were synthesized manually or with an AAPPTEC APEX 396 Automated Multipeptide Synthesizer using standard solid-phase Fmoc protocols.1,2 Peptides were prepared as C-terminal amides using Rink amide MBHA resin (AAPPTEC) and were acetylated at the N-terminus prior to cleavage from the resin. Peptides and metallopeptides were purified by reverse-phase HPLC.
(§4) HPLC separation. Reverse-phase HPLC was performed on a Shimadzu CBM-20A instrument with Phenomenex Jupiter 4μ Proteo 90A (250 × 15 mm preparative) and Phenomenex Jupiter 4μ Proteo 90A (250 × 4.6 mm analytical) columns. The columns were eluted with a gradient of acetonitrile in water (10-90%) (flow rates of 8 mL/min and 1 mL/min for preparative and analytical columns, respectively). Trifluoroacetic acid (0.1%) was added to all eluents. […]
(§5) ITC analysis. ITC experiments were carried out on a VP-ITC instrument (MicroCal) at 25 °C. Titrations of 275 μM peptide into 18 μM SH3 domain proteins were used for all titrations, except for the titration of S2ERh into Lyn SH3 domain, where the lower concentrations of 69 µM S2ERh peptide and 4 µM Lyn SH3 were used to attain a c-value for the titration within the accepted limts for ITC experiments ([…]).3
(§6) Heats of dilutions were measured independently for each experiment by titrating 275 μM peptide into buffer (20 mM phosphate buffer, pH 7, 150 mM NaCl, 1 mM EDTA). All experimental data were fitted using a one set of sites binding model in Origin software (MicroCal) except for the data with Hck SH3 domain. With Hck only, the non-peptide specific binding of dirhodium tetraacetate to Hck SH3 domain could not be treated as negligible, despite the very weak interaction (88 µM), due to the larger enthalpy contribution observed for non-specific binding to this SH3 domain, so the titrations of peptide into Hck were fitted using a 2 set of sites binding model where the stoichiometry for the second set of sites was fixed at 2.0. […]
(§7) Mass spectrometry. ESI-MS was performed on a Bruker Daltonics micrOTOF instrument.
Known compounds and proteins. Several metallopeptides (S2ERh, L3ERh, R5ERh, and 13DRh) were reported previously and were prepared by known protocols;4 alkyne-diazo 3,5 3-azido-7-hydroxycoumarin6 were synthesized following reported procedures; fyn, yes, lck, and src SH3 protein domains were prepared following published procedures.5 Abl, hck, and lyn SH3 domain plasmids were adapted from the previously reported genes;7 the gene templates were obtained from Addgene, ID […]
Table S1. Table of the thermodynamic parameters for binding of metallopeptides to SH3 domains, determined by isothermal […]
Protein Peptide Stoichiometry Kd ΔH -TΔS ΔG
(nM) (kcal mol-1) (kcal mol-1) (kcal mol-1)
* The binding isotherms for metallopeptide interactions with Hck were fitted using a two -sets-of-sites model with the stoichiometry for the second set of sites fixed to 2.0. The second set of binding sites was used to account for the weak, but not negligable, binding of the peptide to another surface of Hck SH3 domain, presumably through non-specific interactions of the dirhodium tetraacetate group. The thermodynamics for the high affinity specific binding site interaction are provided in this

A further experiment has as its target T3, Lyn SH3 domain (Homo sapiens, UniProt P07948).
T3 construct: The lyn SH3 domain was amplified by PCR using Phusion DNA polymerase; GST (N, cleaved yes); made in house; host or cells: E. coli BL21 (DE3)
Kind of experiment: ITC binding of metallopeptides to Lyn SH3 domain. The settings on record: 25 °C.
Excerpt: The His96 is unique among Src-family sequences, and the His78 appears only in Hck and Lck. Individual amino-acid alterations are the only factors that might distinguish the nearly identical secondary structures and peptide-binding preferences of Src-family SH3 domains (cf. Fig. 1a and b). Based on a Src-family SH3-binding sequence (VSL12),[37] known to bind with similar affinity across Src-family SH3 domains,[38] we made metallopeptides with rhodium in different sites near the beginning of the SH3-binding peptide. […] The optimal metallopeptide, S2E^Rh, bound to Lyn with 6 nM affinity. The accuracy of ITC data is reduced for C values >1000 (C = [protein]/K d). Under these conditions the distribution of data points on the isotherm reduces the precision of the global fit. Since the enthalpic contributions to binding in the formation of the complexes described in this work were high, we were able to use a low protein concentration (4 μM) which ensured that our C values were well below this upper range. […] In broad terms, the thermodynamics—favourable enthalpy and unfavourable entropy—are consistent with previous examinations of peptide–SH3 binding (see Table S1 ^† for thermodynamic data).[39] Moving the location of the rhodium center toward the N-terminus, away from the histidine, led to a drop in binding affinity. The N13D^Rh metallopeptide, a convenient negative control with the rhodium center too far for histidine interactions, binds with micromolar activity, similar to simple SH3 binding of the parent peptide. We conclude that the vast affinity improvement is due to rhodium coordination to unique histidine residue(s).
as §2, §3, §4, §5, §6, §7
Known compounds and proteins. Several metallopeptides (S2ERh, L3ERh, R5ERh, and 13DRh) were reported previously and […]

The next experiment deals with T4, Abl SH3 domain (Homo sapiens, UniProt P00519).
T4 construct: The abl SH3 domain was amplified by PCR using Phusion DNA polymerase; GST (N, cleaved yes); made in house; host or cells: E. coli BL21 (DE3)
T4 sequence (P00519 60-121): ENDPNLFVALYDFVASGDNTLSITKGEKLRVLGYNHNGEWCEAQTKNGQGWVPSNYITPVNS
Put plainly: ITC binding to Abl SH3 domain. As to conditions: for -TΔS / ΔG / ΔH / pKd: 25 °C. On the procedure: as §2, §3
(§8) HPLC separation. Reverse-phase HPLC was performed on a Shimadzu CBM-20A instrument with Phenomenex Jupiter 4μ Proteo 90A (250 × 15 mm preparative) and Phenomenex Jupiter 4μ Proteo 90A (250 × 4.6 mm analytical) columns. The columns were eluted with a gradient of acetonitrile in water (10-90%) (flow rates of 8 mL/min and 1 mL/min for preparative and analytical columns, respectively). Trifluoroacetic acid (0.1%) was added to all eluents.
(§9) FPLC separation. Analytical FPLC was performed on an ÄKTA instrument with Superdex Peptide PE 7.5/300 column. The column was equilibrated with buffer (150 mM NaCl, 50 mM Tris, pH 7.0) at flow rate of 0.2 mL/min.
as §5, §6, §7
(§10) Known compounds and proteins. Several metallopeptides (S2ERh, L3ERh, R5ERh, and 13DRh) were reported previously and were prepared by known protocols;4 alkyne-diazo 3,5 3-azido-7-hydroxycoumarin6 were synthesized following reported procedures; fyn, yes, lck, and src SH3 protein domains were prepared following published procedures.5 Abl, hck, and lyn SH3 domain plasmids were adapted from the previously reported genes;7 the gene templates were obtained from Addgene, ID

The next experiment addresses Abl. Further details: method as in PMID 8718852. As to conditions: read-out: affinity for Abl; cited from earlier work.
A further experiment addresses T5, Yes SH3 domain (Homo sapiens, UniProt P07947).
T5 construct: fyn, yes, lck, and src SH3 protein domains were prepared following published procedures; made in house
Put plainly: ITC binding to Yes SH3 domain. On the procedure:
as §2, §3, §8, §9, §5, §6, §7, §10

A further experiment has as its target T6, Lck SH3 domain (Homo sapiens, UniProt P06239).
T6 construct: fyn, yes, lck, and src SH3 protein domains were prepared following published procedures; made in house
Kind of experiment: ITC binding to Lck SH3 domain. The settings on record: 25 °C. On the procedure: as §1, §5, §6
Known compounds and proteins. […]

[2] abbreviates: Yes SH3, ITC, 25 °C, read-out: SH3 Kd.

T3 sequence (P07948 62-121): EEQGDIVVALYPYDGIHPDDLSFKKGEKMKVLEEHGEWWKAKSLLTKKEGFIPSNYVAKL
T6 sequence (P06239 61-121 limits assumed): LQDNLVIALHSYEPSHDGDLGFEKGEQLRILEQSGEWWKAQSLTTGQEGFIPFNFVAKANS
T5 sequence (P07947 91-152 limits assumed): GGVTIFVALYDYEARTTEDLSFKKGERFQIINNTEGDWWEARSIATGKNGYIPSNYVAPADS

`CC(=O)[O-].CC(=O)[O-].CC(=O)[O-].CC(=O)[O-].[Rh+2].[Rh+2]` [Rh2(OAc)4, reference compound]: the “Lyn kinase activation” value in experiment [1] is given as “no activation; also recorded: had no effect on kinase activity”. For the same compound, at Hck SH3 domain, the “-TΔS” value was -1.0 kcal/mol, the pKd was 4.05, the ΔG was -5.5 kcal/mol and the ΔH is -4.5 kcal/mol. Moreover, on Lyn SH3 domain, the “-TΔS” value is 1.0 kcal/mol, the pKd was 3.82, the ΔG is -5.2 kcal/mol and the ΔH is -6.3 kcal/mol.

Consider APTE^RhSPPPPP [p40-Y4E^Rh], for which, on Abl SH3 domain, the Stoichiometry is on record as 1.2, the “-TΔS” value is 5.3 kcal/mol, the ΔG is -7.0 kcal/mol and the ΔH is -12.3 kcal/mol.

Regarding APTYSPPPPP [p40], the pKd on Abl is 6.40.

As for “E^RhPTYSPPPPP (Ac-E(Rh2(OAc)3)PTYSPPPPP-NH2; also: metal complex: Glu1 carboxylate bound to dirhodium(II) triacetate) [p40-A1E^Rh]”, the pKd with Abl SH3 domain is 7.66.

On to E^RhPTYSPPPPP [p40-A1E^Rh], for which, at Abl SH3 domain, the Stoichiometry worked out at 1.0, the “-TΔS” value was found to be 8.9 kcal/mol, the ΔG was -10.5 kcal/mol and the ΔH is -19.4 kcal/mol.

On to “L3E^Rh: rhodium(II) metallopeptide based on Src-family SH3-binding sequence (VSL12), rhodium at residue 3 (VSEARRPLPPLPN; N-terminal acetyl, C-terminal amide)”, for which the pKd with Yes SH3 domain (setting [2]) is 5.43; in the experiment with Hck SH3 domain, 7.28; with Hck SH3 domain (listed as L3ERh), 7.66; in the experiment with Lyn SH3 domain it was 7.52.

In the case of “N13D^Rh: negative control metallopeptide with the rhodium center too far for histidine interactions (VSLARRPLPPLPD; N-terminal acetyl, C-terminal amide)”, the pKd with Yes SH3 domain (Yes SH3, ITC, 25 °C, listed as N13DRh, read-out: SH3 Kd) is 6.62; with Yes SH3 domain (setting [2]) it was 6.52; with Yes SH3 domain (Yes SH3, unit inferred, read-out: Affinity of designed rhodium(II) metallopeptides (Fig. 1d)), 6.52; with Hck SH3 domain, 6.26; in the experiment with Lck SH3 domain, 6.62; with Abl SH3 domain it was 5.05. In the experiment with Lyn SH3 domain, the pKd was 5.92.

Take “P12D^Rh: metallopeptide with the rhodium core moved to the 12th residue (VSLARRPLPPLDN; N-terminal acetyl, C-terminal amide)”: the pKd is 5.64 in the experiment with Hck SH3 domain and 7.10 with Lck SH3 domain.

On to “R5E^Rh: rhodium(II) metallopeptide based on Src-family SH3-binding sequence (VSL12), rhodium at residue 5; catalyst for Yes SH3 modification (VSLAERPLPPLPN; N-terminal acetyl, C-terminal amide)”, for which the pKd in the experiment with Yes SH3 domain (setting [2]) was 5.76; with Lyn SH3 domain, 7.09.

For “R6E^Rh: rhodium(II) metallopeptide based on Src-family SH3-binding sequence (VSL12), rhodium at residue 6 (VSLAREPLPPLPN; N-terminal acetyl, C-terminal amide)”, the figures for the pKd with Hck SH3 domain, with Lck SH3 domain and with Lyn SH3 domain were 7.29, 5.42 and 6.82, respectively.
